These results are taken from US20170066831A1 (Janssen / Centocor, published 2017).

As a reminder, the Kd is the equilibrium constant for the complex coming apart. Read a low Kd as a tighter complex.

Experiment [1] deals with T1, HH-ST2L (human ST2L Domains I and II), wild type (human, UniProt Q01638 19-205).
T1 construct: also called ST2L-D1D2
T1 sequence: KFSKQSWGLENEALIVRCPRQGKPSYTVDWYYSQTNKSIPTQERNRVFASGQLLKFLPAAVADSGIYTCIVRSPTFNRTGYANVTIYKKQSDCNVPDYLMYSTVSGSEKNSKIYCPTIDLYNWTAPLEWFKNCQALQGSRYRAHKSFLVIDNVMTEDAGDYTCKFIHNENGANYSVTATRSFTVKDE
In words: ProteOn SPR, mAb captured by anti-Fc, ST2L-D1D2 injected. As for the experimental part: (§1) Binding studies were performed using the ProteOn XPR36 Protein Interaction Array system (Bio-Rad) (Bravman T, et al. Anal Biochem 358:281-288, 2006). […] Individual anti-ST2L mAb was then captured by flowing (1 μg/mL) antibody solution prepared in PBS containing 0.5% Nonidet P-40 and 0.5% Na-deoxycholate). The signal in the surfaces reached ˜250 resonance units (RU, 1 RU=1 pg protein/mm²) in the anti-Fc-coated surfaces, confirming that these antibodies specifically capture anti-ST2L mAbs. After 90° rotation of the fluid system, wild type of ST2L-D1D2 or variant proteins (0.5 mg/mL in PBS containing 0.5% Nonidet P-40 and 0.5% Na-deoxycholate) was injected in the parallel flow channels. All of these assays were performed at 25° C. The ST2L-D1D2-dependent signals on the surfaces were obtained by double referencing, subtracting the response observed on surfaces immobilizing the antibodies alone, and the signal observed injecting the vehicle alone (which allows correction for binding-independent responses). The resulting sensorgrams were fitted by the simplest 1:1 interaction model (ProteOn analysis software), to obtain the corresponding association and dissociation rate constants (kₐ and kd).
(§2) Residue numbering is according to full length human ST2L of SEQ ID NO: 1.

Experiment [2] concerns the target T2, HH-ST2L variant 93NL94 (substitution 93TF94 to 93NL94) (human, UniProt Q01638 19-205).
T2 chain: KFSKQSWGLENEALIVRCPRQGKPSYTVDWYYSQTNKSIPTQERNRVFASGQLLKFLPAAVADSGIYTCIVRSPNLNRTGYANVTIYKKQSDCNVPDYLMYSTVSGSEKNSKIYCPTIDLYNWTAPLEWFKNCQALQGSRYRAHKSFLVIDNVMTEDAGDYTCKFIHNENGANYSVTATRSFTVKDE
In words: ProteOn SPR, mAb captured by anti-Fc, ST2L-D1D2 variant injected. Here is the method: as §1, §2

B1: STLM208 (antibody, V domains shown)
VH: EVQLLESGGGLVQPGGSLRLSCAASGFTFSIYDMIWVRQAPGKGLEWVSSIRGEGGGTYYADSVKGRFTISRDNSKNTLYLQMNSLRAEDTAVYYCARDPWSTEGSFFVLDYWGQGTLVTVSS
VL: EIVLTQSPATLSLSPGERATLSCRASQSVDDDLAWYQQKPGQAPRLLIYDASNRATGIPARFSGSGSGTDFTLTISSLEPEDFAVYYCQQYITAPLTFGQGTKVEIK
notes: frameworks VH3-23 / Vk-L6
Take B1: the equilibrium dissociation constant (Kd) in experiment [1] was about 0.0108 nM; in experiment [2] it was about 0.0495 nM. For the same molecule, the “fold reduction of binding affinity against wild type ST2L-D1D2” value in experiment [2] was about 5 fold.
